Key:
BJ kappa Bo (human) = experiment: haemagglutination of sheep RBC coated with BJ kappa Bo
BJ kappa Ke (human) = experiment: haemagglutination of sheep RBC coated with BJ kappa Ke

| MAb dilution used against coated red cells (BJ kappa Bo (human)) | MAb dilution used against coated red cells (BJ kappa Ke (human)) | Binder |
| --- | --- | --- |
| 1e-05 dilution |  | monoclonal antibody 1B6 (antibody, mouse IgG1, V domains shown) VH: RQFPGNKLEWMGYINYSGITSYNPSLKSRFSITRDTSKNQFFLQLNSVTTEDTATYYCASWYYGNWYFDVWGAGTTVTVSS VL: DIQMTQSPASLSVSVGETVTITCRASENIYSNLAWYQQKQGNSPQLLVYAATNLADGVPSRFSGSGSGTQYSLKINSLQSEDFGNYYCQHFWGTPWTFGGGTKLEIKR |
|  | 1e-05 dilution | monoclonal antibody KA1 (antibody, V domains shown) VH: DVQLQESGPGLVNPSQSLSLTCTVTGYSITGDYAWNWIRQFPGNKLEWMGYISYSGLTSYNPSLKSRISITRDTSKNQFFLQLNSVATEDTATYYCTSFYYGYWYFDVWGAGTTVTVSS VL: DIQMTQSPASLSASVGETVTITCRASENIYSFLTWYLQKQGKSPQLLVNNAKTLAEGVPSRFSGSGSGSQFSLKINSLQPEDFGTYYCQHHYGTPYTFGGGTKLEIKR |

From US20110229908A1
